Laboratory results reported in patent US11746139B2, “IL-7Rαγc binding compounds” (MEDIKINE, INC., priority 2020, dated 2023).

What was measured:
[1] = target: T1, IL-7Rα subunit (Homo sapiens, UniProt P16871); test: Phage competitive binding assay characterizing the IL-7Rα ligand binding site; details: for Competition with Phage Clone SEQ ID NO: 5 (Family 1) for binding to the IL-7Rα subunit: phage clone 5, immobilized IL-7Rα ECD; for Competition with Phage Clone SEQ ID NO: 43 (Family 3A) for binding to the IL-7Rα subunit: phage clone 43, immobilized IL-7Rα ECD; for Competition with Phage Clone SEQ ID NO: 104 (Family 3B) for binding to the IL-7Rα subunit: phage clone 104, immobilized IL-7Rα ECD; for Competition with Phage Clone SEQ ID NO: 313 (Family 2) for binding to the IL-7Rα subunit: phage clone 313, immobilized IL-7Rα ECD
T1 sequence (P16871 21-236): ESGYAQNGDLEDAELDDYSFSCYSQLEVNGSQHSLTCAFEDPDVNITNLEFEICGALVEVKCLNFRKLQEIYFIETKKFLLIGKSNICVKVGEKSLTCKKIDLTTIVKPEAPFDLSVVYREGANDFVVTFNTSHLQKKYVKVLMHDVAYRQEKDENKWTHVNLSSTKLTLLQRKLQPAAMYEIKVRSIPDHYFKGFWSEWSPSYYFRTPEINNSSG

[2] = target: T1, IL-7Rα subunit; test: Competition of IL-7Rα ligands with IL-7 for binding to IL-7Rα

Competition with Phage Clone SEQ ID NO: 965 (N/A) for binding to the IL-7Rα subunit ([1]; phage clone 965, immobilized IL-7Rα ECD) | Competitive binding with IL-7 binding to IL-7Rα [2] | Substance | Competition with Phage Clone SEQ ID NO: 5 (Family 1) for binding to the IL-7Rα subunit [1] | Competition with Phage Clone SEQ ID NO: 43 (Family 3A) for binding to the IL-7Rα subunit [1] | Competition with Phage Clone SEQ ID NO: 104 (Family 3B) for binding to the IL-7Rα subunit [1] | Competition with Phage Clone SEQ ID NO: 313 (Family 2) for binding to the IL-7Rα subunit [1]
0^2 | do not bind competitively | QCVHWDLDTLFGCIREQLEL [SEQ ID NO: 146] | +^1 (IL-7Rα ligand competes with phage binding.) | + (IL-7Rα ligand competes with phage binding.) | + (IL-7Rα ligand competes with phage binding.) | + (IL-7Rα ligand competes with phage binding.)
– | do not bind competitively | Q C I H W D I E T L L S C V [SEQ ID NO: 5] | + (IL-7Rα ligand competes with phage binding.) | + (IL-7Rα ligand competes with phage binding.) | + (IL-7Rα ligand competes with phage binding.) | + (IL-7Rα ligand competes with phage binding.)
– | do not bind competitively | Y M A C S S G L S L C R L S [SEQ ID NO: 104] | + (IL-7Rα ligand competes with phage binding.) | + (IL-7Rα ligand competes with phage binding.) | + (IL-7Rα ligand competes with phage binding.) | + (IL-7Rα ligand competes with phage binding.)
– | do not bind competitively | G G V P W C T L D P G S L Q C A W F [SEQ ID NO: 313] | + (IL-7Rα ligand competes with phage binding.) | + (IL-7Rα ligand competes with phage binding.) | + (IL-7Rα ligand competes with phage binding.) | + (IL-7Rα ligand competes with phage binding.)
